What was measured:
[1] = target: Nanoluc-GCGR fusion protein (human) (UniProt P47871); experiment: FRET or BRET
[2] = target: mC-GCGR-31C-NBD (minimal cysteine GCGR labelled with NBD on the N-terminal helix of the ECD) (human) (UniProt P47871); experiment: other fluorescence titration
[3] = target: mC-GCGR-345C-NBD (minimal cysteine GCGR labelled with NBD at the cytoplasmic end of TM6) (human) (UniProt P47871); experiment: other fluorescence titration
[4] = target: Human glucagon receptor (Q27-F477) (human, UniProt P47871 27-477); experiment: pull-down
Human glucagon receptor (Q27-F477), sequence (P47871 27-477): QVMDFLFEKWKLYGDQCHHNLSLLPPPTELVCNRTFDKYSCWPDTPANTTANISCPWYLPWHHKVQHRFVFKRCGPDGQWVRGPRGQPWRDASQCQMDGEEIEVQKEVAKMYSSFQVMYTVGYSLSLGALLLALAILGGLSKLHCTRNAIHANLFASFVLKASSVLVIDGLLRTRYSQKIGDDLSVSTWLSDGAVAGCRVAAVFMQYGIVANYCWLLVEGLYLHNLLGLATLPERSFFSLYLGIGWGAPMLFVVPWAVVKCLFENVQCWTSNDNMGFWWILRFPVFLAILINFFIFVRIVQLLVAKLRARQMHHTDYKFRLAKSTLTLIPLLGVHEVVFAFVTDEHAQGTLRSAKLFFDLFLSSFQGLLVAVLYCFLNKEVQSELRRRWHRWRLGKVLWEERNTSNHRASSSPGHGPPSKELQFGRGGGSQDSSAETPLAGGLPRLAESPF

Nanoluc-GCGR fusion protein (human), sequence (P47871 26-477): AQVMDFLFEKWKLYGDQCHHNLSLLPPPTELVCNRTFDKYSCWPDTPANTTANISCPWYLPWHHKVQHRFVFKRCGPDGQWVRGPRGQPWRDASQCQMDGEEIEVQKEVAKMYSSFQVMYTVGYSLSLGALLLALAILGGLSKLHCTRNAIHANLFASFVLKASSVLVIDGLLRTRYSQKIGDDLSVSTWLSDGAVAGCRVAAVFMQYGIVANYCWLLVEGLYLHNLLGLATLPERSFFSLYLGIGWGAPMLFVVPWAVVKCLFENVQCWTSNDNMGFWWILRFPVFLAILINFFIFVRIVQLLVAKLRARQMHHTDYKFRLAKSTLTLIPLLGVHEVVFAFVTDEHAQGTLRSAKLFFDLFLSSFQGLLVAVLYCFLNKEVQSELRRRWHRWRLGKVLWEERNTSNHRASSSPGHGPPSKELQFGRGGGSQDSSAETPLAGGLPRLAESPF

Molecule Dasi-E21S-A17K(TAMRA) (peptide) has a fold decrease in affinity with co-expressed RAMP2 against without RAMP2 [1] of 2.9 fold.

In the case of “human RAMP2 (residues 43-175) (from UniProt O60895 43-175) (natural protein)”, the EC50 [2] is reported as 131 nM and the EC50 [3] is reported as 225 nM.

B1: human RAMP2 (residues 43-175) (natural protein, UniProt O60895 43-175, looked up)
chain: QPLPTTGTPGSEGGTVKNYETAVQFCWNHYKDQMDPIEKDWCDWAMISRPYSTLRDCLEHFAELFDLGFPNPLAERIIFETHQIHFANCSLVQPTFSDPPEDVLLAMIIAPICLIPFLITLVVWRSKDSEAQA
B1: binds [4].

Reference: publication PMC10144504 (Cell, 2023)
